Results taken from paper PMC9482650, “Quantitative fragmentomics allow affinity mapping of interactomes” (Nature Communications, 2022).

B1: GOLT1A, Q6ZVE7 (peptide)
chain: RRLQGTSSMV

biological target: T1, APBA2_1, Q99767; experiment: holdup assay; design: key: below the threshold = too weak to quantify, mostly under pKd 3.1 to 4; conditions: plain residues with an end cap or a label only (N-terminal biotin on a linker: ado-ado)
T1 sequence (Q99767 563-664, limits assumed, looked up): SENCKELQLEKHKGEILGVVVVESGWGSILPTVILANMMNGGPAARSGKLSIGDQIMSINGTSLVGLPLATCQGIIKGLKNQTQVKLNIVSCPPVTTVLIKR

Row | pKd | Binder
1 | below the threshold | B1

biological target: T2, DLG3_1, Q92796; experiment: holdup assay; design: key: below the threshold = too weak to quantify, mostly under pKd 3.1 to 4; conditions: plain residues with an end cap or a label only (N-terminal biotin on a linker: ado-ado)
T2 sequence (Q92796 125-227, limits assumed, looked up): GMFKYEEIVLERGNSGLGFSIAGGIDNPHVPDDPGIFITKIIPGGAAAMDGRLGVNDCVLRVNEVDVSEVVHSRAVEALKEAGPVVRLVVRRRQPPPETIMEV

Row | pKd | Binder
2 | 3.81 | B1

biological target: T3, DLG3_2, Q92796; experiment: holdup assay; design: key: below the threshold = too weak to quantify, mostly under pKd 3.1 to 4; conditions: plain residues with an end cap or a label only (N-terminal biotin on a linker: ado-ado)
T3 sequence (Q92796 221-321, limits assumed, looked up): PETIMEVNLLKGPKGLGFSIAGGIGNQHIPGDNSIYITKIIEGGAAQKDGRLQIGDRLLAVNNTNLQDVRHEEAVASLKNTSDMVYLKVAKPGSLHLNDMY

Row | pKd | Binder
3 | 4.67 | B1

biological target: T4, DVL3, Q92997; experiment: holdup assay; design: key: below the threshold = too weak to quantify, mostly under pKd 3.1 to 4; conditions: plain residues with an end cap or a label only (N-terminal biotin on a linker: ado-ado)
T4 sequence (Q92997 244-331, limits assumed, looked up): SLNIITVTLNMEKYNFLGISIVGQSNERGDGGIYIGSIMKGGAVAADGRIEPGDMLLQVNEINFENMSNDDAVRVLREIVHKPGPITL

Row | pKd | Binder
4 | below the threshold | B1

biological target: FRMPD2_1, Q68DX3; experiment: holdup assay; design: key: below the threshold = too weak to quantify, mostly under pKd 3.1 to 4; conditions: plain residues with an end cap or a label only (N-terminal biotin on a linker: ado-ado)
Sequence (Q68DX3 770-861): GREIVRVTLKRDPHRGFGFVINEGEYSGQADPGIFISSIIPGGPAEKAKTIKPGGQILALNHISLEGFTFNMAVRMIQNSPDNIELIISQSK

Row | pKd | Binder
5 | below the threshold | B1

biological target: GOPC, Q9HD26; experiment: holdup assay; design: key: below the threshold = too weak to quantify, mostly under pKd 3.1 to 4; conditions: plain residues with an end cap or a label only (N-terminal biotin on a linker: ado-ado)

Row | pKd | Binder
6 | below the threshold | B1

biological target: GORASP2, Q9H8Y8; experiment: holdup assay; design: key: below the threshold = too weak to quantify, mostly under pKd 3.1 to 4; conditions: plain residues with an end cap or a label only (N-terminal biotin on a linker: ado-ado)

Row | pKd | Binder
7 | 4.17 | B1

biological target: GRID2IP_2, A4D2P6; experiment: holdup assay; design: key: below the threshold = too weak to quantify, mostly under pKd 3.1 to 4; conditions: plain residues with an end cap or a label only (N-terminal biotin on a linker: ado-ado)
Sequence (A4D2P6 272-370): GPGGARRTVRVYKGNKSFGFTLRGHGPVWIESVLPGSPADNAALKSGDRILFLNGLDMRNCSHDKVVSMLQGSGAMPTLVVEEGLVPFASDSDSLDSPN

Row | pKd | Binder
8 | 3.93 | B1

biological target: GRIP2_4, Q9C0E4; experiment: holdup assay; design: key: below the threshold = too weak to quantify, mostly under pKd 3.1 to 4; conditions: plain residues with an end cap or a label only (N-terminal biotin on a linker: ado-ado)
Sequence (Q9C0E4 446-548): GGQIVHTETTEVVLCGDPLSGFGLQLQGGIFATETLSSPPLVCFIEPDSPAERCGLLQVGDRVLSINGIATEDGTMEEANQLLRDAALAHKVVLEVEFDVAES

Row | pKd | Binder
9 | below the threshold | B1

biological target: IL16_3, Q14005; experiment: holdup assay; design: key: below the threshold = too weak to quantify, mostly under pKd 3.1 to 4; conditions: plain residues with an end cap or a label only (N-terminal biotin on a linker: ado-ado)
Sequence (Q14005 1107-1207): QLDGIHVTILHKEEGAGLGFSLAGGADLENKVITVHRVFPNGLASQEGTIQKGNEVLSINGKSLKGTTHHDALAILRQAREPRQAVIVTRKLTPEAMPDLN

Row | pKd | Binder
10 | below the threshold | B1

biological target: Inadl_6, Q8NI35; experiment: holdup assay; design: key: below the threshold = too weak to quantify, mostly under pKd 3.1 to 4; conditions: plain residues with an end cap or a label only (N-terminal biotin on a linker: ado-ado)
Sequence (Q8NI35 1058-1167): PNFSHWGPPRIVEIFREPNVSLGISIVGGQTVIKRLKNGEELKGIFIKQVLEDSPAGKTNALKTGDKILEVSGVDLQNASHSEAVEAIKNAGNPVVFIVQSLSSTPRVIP

Row | pKd | Binder
11 | below the threshold | B1

biological target: Inadl_8, Q8NI35; experiment: holdup assay; design: key: below the threshold = too weak to quantify, mostly under pKd 3.1 to 4; conditions: plain residues with an end cap or a label only (N-terminal biotin on a linker: ado-ado)
Sequence (Q8NI35 1425-1530): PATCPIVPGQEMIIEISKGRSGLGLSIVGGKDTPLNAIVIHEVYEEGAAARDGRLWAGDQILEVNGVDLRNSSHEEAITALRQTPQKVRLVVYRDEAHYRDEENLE

Row | pKd | Binder
12 | 4.08 | B1

biological target: LIMK2, P53671; experiment: holdup assay; design: key: below the threshold = too weak to quantify, mostly under pKd 3.1 to 4; conditions: plain residues with an end cap or a label only (N-terminal biotin on a linker: ado-ado)
Sequence (P53671 143-248): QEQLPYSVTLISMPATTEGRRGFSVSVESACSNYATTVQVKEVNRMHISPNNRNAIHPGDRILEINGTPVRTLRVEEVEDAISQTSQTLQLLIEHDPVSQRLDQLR

Row | pKd | Binder
13 | below the threshold | B1

biological target: LNX1_1, Q8TBB1; experiment: holdup assay; design: key: below the threshold = too weak to quantify, mostly under pKd 3.1 to 4; conditions: plain residues with an end cap or a label only (N-terminal biotin on a linker: ado-ado)
Sequence (Q8TBB1 261-371): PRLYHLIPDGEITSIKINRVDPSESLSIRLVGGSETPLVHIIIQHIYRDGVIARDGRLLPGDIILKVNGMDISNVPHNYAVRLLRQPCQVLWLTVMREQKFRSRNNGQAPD

Row | pKd | Binder
14 | 3.83 | B1

biological target: LNX1_2, Q8TBB1; experiment: holdup assay; design: key: below the threshold = too weak to quantify, mostly under pKd 3.1 to 4; conditions: plain residues with an end cap or a label only (N-terminal biotin on a linker: ado-ado)
Sequence (Q8TBB1 371-470): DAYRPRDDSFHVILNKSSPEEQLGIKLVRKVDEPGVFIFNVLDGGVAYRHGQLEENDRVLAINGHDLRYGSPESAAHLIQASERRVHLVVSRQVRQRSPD

Row | pKd | Binder
15 | below the threshold | B1

biological target: MAST1, Q9Y2H9; experiment: holdup assay; design: key: below the threshold = too weak to quantify, mostly under pKd 3.1 to 4; conditions: plain residues with an end cap or a label only (N-terminal biotin on a linker: ado-ado)
Sequence (Q9Y2H9 962-1065): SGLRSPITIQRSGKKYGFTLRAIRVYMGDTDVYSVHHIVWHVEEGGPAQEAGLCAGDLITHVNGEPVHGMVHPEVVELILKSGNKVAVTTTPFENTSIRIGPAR

Row | pKd | Binder
16 | 4.35 | B1

biological target: MAST2, Q6P0Q8; experiment: holdup assay; design: key: below the threshold = too weak to quantify, mostly under pKd 3.1 to 4; conditions: plain residues with an end cap or a label only (N-terminal biotin on a linker: ado-ado)
Sequence (Q6P0Q8 1099-1202): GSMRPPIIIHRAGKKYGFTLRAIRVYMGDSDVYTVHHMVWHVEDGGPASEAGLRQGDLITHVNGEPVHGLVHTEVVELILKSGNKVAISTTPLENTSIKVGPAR

Row | pKd | Binder
17 | 4.72 | B1

biological target: T5, MPDZ_12, O75970; experiment: holdup assay; design: key: below the threshold = too weak to quantify, mostly under pKd 3.1 to 4; conditions: plain residues with an end cap or a label only (N-terminal biotin on a linker: ado-ado)
T5 sequence (O75970 1857-1958, limits assumed, looked up): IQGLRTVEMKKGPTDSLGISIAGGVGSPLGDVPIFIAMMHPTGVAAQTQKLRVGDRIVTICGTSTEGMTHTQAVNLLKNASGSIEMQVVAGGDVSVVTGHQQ

Row | pKd | Binder
18 | below the threshold | B1

biological target: T6, NHERF3_4, Q5T2W1; experiment: holdup assay; design: key: below the threshold = too weak to quantify, mostly under pKd 3.1 to 4; conditions: plain residues with an end cap or a label only (N-terminal biotin on a linker: ado-ado)
T6 sequence (Q5T2W1 373-468, limits assumed, looked up): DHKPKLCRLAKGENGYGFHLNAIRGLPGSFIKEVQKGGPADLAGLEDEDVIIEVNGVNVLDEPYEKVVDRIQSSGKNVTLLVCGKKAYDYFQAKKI

Row | pKd | Binder
19 | below the threshold | B1

biological target: T7, PARD3B_1, Q8TEW8; experiment: holdup assay; design: key: below the threshold = too weak to quantify, mostly under pKd 3.1 to 4; conditions: plain residues with an end cap or a label only (N-terminal biotin on a linker: ado-ado)
T7 sequence (Q8TEW8 196-299, limits assumed, looked up): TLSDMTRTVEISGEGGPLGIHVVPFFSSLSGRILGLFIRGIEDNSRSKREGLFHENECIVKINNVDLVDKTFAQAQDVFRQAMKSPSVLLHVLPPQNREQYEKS

Row | pKd | Binder
20 | below the threshold | B1

biological target: PARD3_3, Q8TEW0; experiment: holdup assay; design: key: below the threshold = too weak to quantify, mostly under pKd 3.1 to 4; conditions: plain residues with an end cap or a label only (N-terminal biotin on a linker: ado-ado)
Sequence (Q8TEW0 582-685): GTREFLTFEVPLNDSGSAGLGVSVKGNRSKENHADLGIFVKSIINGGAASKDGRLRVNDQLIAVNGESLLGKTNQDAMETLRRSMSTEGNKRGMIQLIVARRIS

Row | pKd | Binder
21 | below the threshold | B1

biological target: T8, RHPN1, Q8TCX5; experiment: holdup assay; design: key: below the threshold = too weak to quantify, mostly under pKd 3.1 to 4; conditions: plain residues with an end cap or a label only (N-terminal biotin on a linker: ado-ado)
T8 sequence (Q8TCX5 508-602, limits assumed, looked up): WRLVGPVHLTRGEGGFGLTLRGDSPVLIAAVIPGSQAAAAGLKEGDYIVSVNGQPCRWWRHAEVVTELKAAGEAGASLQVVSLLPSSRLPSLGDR

Row | pKd | Binder
22 | 3.58 | B1

biological target: SCRIB_1, Q14160; experiment: holdup assay; design: key: below the threshold = too weak to quantify, mostly under pKd 3.1 to 4; conditions: plain residues with an end cap or a label only (N-terminal biotin on a linker: ado-ado)
Sequence (Q14160 718-814): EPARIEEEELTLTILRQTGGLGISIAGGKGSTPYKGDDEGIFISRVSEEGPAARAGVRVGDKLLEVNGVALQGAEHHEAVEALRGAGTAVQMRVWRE

Row | pKd | Binder
23 | below the threshold | B1

biological target: SCRIB_2, Q14160; experiment: holdup assay; design: key: below the threshold = too weak to quantify, mostly under pKd 3.1 to 4; conditions: plain residues with an end cap or a label only (N-terminal biotin on a linker: ado-ado)
Sequence (Q14160 857-960): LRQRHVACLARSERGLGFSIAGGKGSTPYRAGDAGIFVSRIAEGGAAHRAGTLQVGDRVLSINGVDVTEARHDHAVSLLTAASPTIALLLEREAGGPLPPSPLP

Row | pKd | Binder
24 | 3.57 | B1

biological target: T9, SHANK1, Q9Y566; experiment: holdup assay; design: key: below the threshold = too weak to quantify, mostly under pKd 3.1 to 4; conditions: plain residues with an end cap or a label only (N-terminal biotin on a linker: ado-ado)
T9 sequence (Q9Y566 658-767, limits assumed, looked up): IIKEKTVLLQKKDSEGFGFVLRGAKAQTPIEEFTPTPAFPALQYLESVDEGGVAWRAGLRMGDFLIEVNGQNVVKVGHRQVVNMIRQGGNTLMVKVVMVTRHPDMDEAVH

Row | pKd | Binder
25 | below the threshold | B1

biological target: T10, SNTG2, Q9NY99; experiment: holdup assay; design: key: below the threshold = too weak to quantify, mostly under pKd 3.1 to 4; conditions: plain residues with an end cap or a label only (N-terminal biotin on a linker: ado-ado)
T10 sequence (Q9NY99 68-166, limits assumed, looked up): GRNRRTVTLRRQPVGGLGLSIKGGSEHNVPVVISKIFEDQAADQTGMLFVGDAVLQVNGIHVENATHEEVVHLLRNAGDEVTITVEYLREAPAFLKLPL

Row | pKd | Binder
26 | below the threshold | B1

biological target: TJP1_2, Q07157; experiment: holdup assay; design: key: below the threshold = too weak to quantify, mostly under pKd 3.1 to 4; conditions: plain residues with an end cap or a label only (N-terminal biotin on a linker: ado-ado)
Sequence (Q07157 181-274): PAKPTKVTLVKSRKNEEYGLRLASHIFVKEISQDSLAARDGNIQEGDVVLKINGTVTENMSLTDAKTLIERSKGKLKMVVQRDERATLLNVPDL

Row | pKd | Binder
27 | below the threshold | B1
